Data as given in patent US20150284450A1 (AstraZeneca / MedImmune, published 2015).

Biological target: PcrV as expressed by live P. aeruginosa (strains 6077 and 6206) in the cytotoxicity and RBC lysis assays (Pseudomonas aeruginosa)
Assay: cell-based or functional assay

B1: anti-PcrV monoclonal antibody V2L2 (antibody, V domains shown)
VH: EMQLLESGGGLVQPGGSLRLSCAASGFTFSSYAMNWVRQAPGEGLEWVSAITISGITAYYTDSVKGRFTISRDNSKNTLYLQMNSLRAGDTAVYYCAKEEFLPGTHYYYGMDVWGQGTTVTVSS
VL: AIQMTQSPSSLSASVGDRVTITCRASQGIRNDLGWYQQKPGKAPKLVIYSASTLQSGVPSRFSGSGSGTDFTLSISSLQPDDFATYYCLQDYNYPWTFGQGTKVEIK
- inhibition of cytotoxicity (A549 lysis by P. aeruginosa 6077, LDH release), IC50: 0.1 µg/mL
- inhibition of cytotoxicity, IC50 relative to mAb166: 28 fold lower
- prevention of RBC lysis (rabbit RBCs, P. aeruginosa 6077), IC50: 0.37 µg/mL
- prevention of RBC lysis, IC50 relative to mAb166: 10 fold lower
